In data set [1] the target is T1, AtXTH22 (Arabidopsis thaliana, UniProt Q38857).
T1 construct: gene XTH22
T1 sequence (Q38857 22-284): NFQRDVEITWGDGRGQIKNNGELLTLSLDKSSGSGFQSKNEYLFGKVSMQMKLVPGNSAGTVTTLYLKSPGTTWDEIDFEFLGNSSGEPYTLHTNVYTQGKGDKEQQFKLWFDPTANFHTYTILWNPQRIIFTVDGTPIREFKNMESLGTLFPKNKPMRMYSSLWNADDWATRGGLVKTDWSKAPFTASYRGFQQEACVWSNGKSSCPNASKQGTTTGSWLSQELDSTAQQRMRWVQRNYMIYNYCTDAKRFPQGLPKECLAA
Description: transglycosylation, size-exclusion chromatography with fluorescence detection. In kind it is biochemical. Conditions: 25 μM acceptor; donor tamarind xyloglucan 2 mg/mL; 50 mM sodium acetate pH 6.0, 30 °C, 24 h; labelled compound. A general note: Size exclusion chromatography separates by hydrodynamic size, large species first.

Substrate in data set [2]: OC[C@@H](O)[C@@H](O[C@@H]1O[C@H](CO)[C@@H](O[C@@H]2O[C@H](CO)[C@@H](O[C@@H]3O[C@H](CO)[C@@H](O)[C@H](O)[C@H]3O)[C@H](O)[C@H]2O)[C@H](O)[C@H]1O)[C@H](O)[C@@H](O)CNc1ccccn1
As to the kind of experiment: transglycosylation, fluorescent product by anion-exchange LC after cellulase digestion. In kind it is biochemical, Arabidopsis thaliana. Conditions: acceptor, donor amorphous cellulose, 50 mM sodium acetate pH 5.0, 30 °C, 6 h, labelled compound. The text has this: (§1) transglycosylation, fluorescent product by anion-exchange LC after cellulase digestion on AtXTH3 | Michaelis constant (KM) and turnover number (kcat) for acceptor oligosaccharides (left: GGGG-AP; right: XXXG-AP)

Substrate in data set [3]: OC[C@@H](O)[C@@H](O[C@@H]1O[C@H](CO[C@H]2OC[C@@H](O)[C@H](O)[C@H]2O)[C@@H](O[C@@H]2O[C@H](CO[C@H]3OC[C@@H](O)[C@H](O)[C@H]3O)[C@@H](O[C@@H]3O[C@H](CO[C@H]4OC[C@@H](O)[C@H](O)[C@H]4O)[C@@H](O)[C@H](O)[C@H]3O)[C@H](O)[C@H]2O)[C@H](O)[C@H]1O)[C@H](O)[C@@H](O)CNc1ccccn1
The data set is described as above. It counts as biochemical, Arabidopsis thaliana. The conditions noted are these: acceptor, donor amorphous cellulose, 50 mM sodium acetate pH 5.0, 30 °C, 6 h, labelled compound.
Source text: as §1

2 molecules from paper PMC5405413, “The plant cell-wall enzyme AtXTH3 catalyses covalent cross-linking between cellulose and cello-oligosaccharide” (Scientific Reports, 2017) can be followed below.

In the case of `OC[C@@H](O)[C@@H](O[C@@H]1O[C@H](CO[C@H]2OC[C@@H](O)[C@H](O)[C@H]2O)[C@@H](O[C@@H]2O[C@H](CO[C@H]3OC[C@@H](O)[C@H](O)[C@H]3O)[C@@H](O[C@@H]3O[C@H](CO[C@H]4OC[C@@H](O)[C@H](O)[C@H]4O)[C@@H](O)[C@H](O)[C@H]3O)[C@H](O)[C@H]2O)[C@H](O)[C@H]1O)[C@H](O)[C@@H](O)CNc1ccccn1` [XXXG-AP, aminopyridyl xyloglucan-heptasaccharide], the “transglycosylation, size-exclusion chromatography with fluorescence detection” value in data set [1] was “AtXTH22 almost exclusively transferred xyloglucans to xyloglucan oligosaccharides”.

B1: AtXTH3 (Arabidopsis thaliana) (protein)
chain: RVFGGRGIEKFVTFGQNYIVTWGQSHVSTLHSGEEVDLYMDQSSGGGFESKDAYGSGLFEMRIKVPSGNTGGIVTAFYLTSKGGGHDEIDFEFLGNNNGKPVTLQTNLFLNGEGNREERFLLWFNPTKHYHTYGLLWNPYQIVFYVDNIPIRVYKNENGVSYPSKPMQVEASLWNGDDWATDGGRTKVNWSYSPFIAHFRDFALSGCNIDGRSNNVGACESSNYWWNAGNYQRLSGNEQKLYEHVRSKYMNYDYCTDRSKYQTPPRECY
In the case of B1, in data set [2], the Km is given as 58.8 ± 8.4 µM and the kcat is reported as 8.0 ± 0.5 x10^-5 sec^-1. Further, in data set [3], the Km is on record as 8.6 ± 2.3 µM and the kcat is recorded as 9.0 ± 1.0 x10^-5 sec^-1.

What is called Km is the substrate concentration at which the rate is half of its maximum.
